Key:
[1] = target: T1, Aβ40 monomer (amyloid β peptide 1-40) (UniProt P05067 672-711); test: one-sided ELISA, plate coated with Aβ40 monomer (100 pmol/well), 19.3 titrated, anti-human IgG-AP, luminescence
T1 construct: domain: amyloid β peptide 1-40; also called monomeric Aβ40; Aβ monomer
Method: (§1) Next day, plates were washed five times with PBS+0.05% Tween-20 and blocked overnight with Casein blocking buffer (Thermo Scientific, Waltham, Mass.) and 0.05% Tween-20. […] After two hours at room temperature incubation, the plates were washed and alkaline phosphatase conjugated anti-human IgG (ThermoScientific, Waltham, Mass.) was added at 0.08 μg/ml. After incubation for 45 minutes at room temperature, the plates were washed and Tropix CDP star (Applied Biosystems, Foster City, Calif.) was added. Luminescence was detected after 30 minutes on an EnVision® plate reader (PerkinElmer, Waltham, Mass.). Curve fits were completed using GraphPad Prism (GraphPad Software, Inc., San Diego, Calif.) software.

[2] = target: T2, Aβ oligomers (ADDLs, amyloid-β derived diffusible ligands) prepared from Aβ42 (UniProt P05067 672-713); test: one-sided ELISA on coated plates
T2 construct: domain: amyloid β peptide 1-42; Heterogeneous mixture of multimers; number of chains not defined; Concentrations are calculated on the Aβ monomer molecular weight (MW 4513); also called ADDL species of Aβ oligomers; Aβ oligomer standards
Method: as §1

[3] = target: T2, Aβ oligomers (ADDLs, amyloid-β derived …); test: one-sided ELISA, plate coated with Aβ oligomers (50 pmol/well), 19.3 titrated, anti-human IgG-AP, luminescence
Method: as §1

T2 sequence (P05067 672-713 limits assumed): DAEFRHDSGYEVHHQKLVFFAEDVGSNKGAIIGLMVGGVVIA
T1 sequence (P05067 672-711 limits assumed): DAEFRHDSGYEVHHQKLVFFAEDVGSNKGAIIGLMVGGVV

- EC50 [1]: 4.3 nM
- fold greater potency than for Aβ40 monomer [2]: ~3.7 fold
- EC50 [3]: 1.6 nM
B1: anti-Aβ oligomer antibody 19.3 (antibody, V domains shown)
VH: EVQLVESGGGLVQPGGSLRLSCAASGFTFSSFGMHWVRQAPGKGLEWVAYISRGSSTIYYADTVKGRFTISRDNAKNSLYLQMNSLRAEDTAVYYCARGITTALDYWGQGTLVTVSS
VL: DVVMTQSPLSLPVTPGEPASISCRSSQSIVHSNGNTYLEWYLQKPGQSPQLLIYKASNRFSGVPDRFSGSGSGTDFTLKISRVEAEDVGVYYCFQGSRLGPSFGQGTKLEIK
notes: In the sandwich assays it was coated on plates or covalently coupled to paramagnetic micro-particle beads; not shown: human immunoglobulin kappa light chain constant region
